Measurements published in patent publication US20110251256A1 (KOREA UNIVERSITY INDUSTRIAL AND ACADEMIC COLLABORATIVE …, published 2011).

T1: IRS-1 (endogenous protein of C2C12 cells) (UniProt P35569 1-1233)
T1 construct: also called insulin receptor substrate-1
T1 sequence (looked up): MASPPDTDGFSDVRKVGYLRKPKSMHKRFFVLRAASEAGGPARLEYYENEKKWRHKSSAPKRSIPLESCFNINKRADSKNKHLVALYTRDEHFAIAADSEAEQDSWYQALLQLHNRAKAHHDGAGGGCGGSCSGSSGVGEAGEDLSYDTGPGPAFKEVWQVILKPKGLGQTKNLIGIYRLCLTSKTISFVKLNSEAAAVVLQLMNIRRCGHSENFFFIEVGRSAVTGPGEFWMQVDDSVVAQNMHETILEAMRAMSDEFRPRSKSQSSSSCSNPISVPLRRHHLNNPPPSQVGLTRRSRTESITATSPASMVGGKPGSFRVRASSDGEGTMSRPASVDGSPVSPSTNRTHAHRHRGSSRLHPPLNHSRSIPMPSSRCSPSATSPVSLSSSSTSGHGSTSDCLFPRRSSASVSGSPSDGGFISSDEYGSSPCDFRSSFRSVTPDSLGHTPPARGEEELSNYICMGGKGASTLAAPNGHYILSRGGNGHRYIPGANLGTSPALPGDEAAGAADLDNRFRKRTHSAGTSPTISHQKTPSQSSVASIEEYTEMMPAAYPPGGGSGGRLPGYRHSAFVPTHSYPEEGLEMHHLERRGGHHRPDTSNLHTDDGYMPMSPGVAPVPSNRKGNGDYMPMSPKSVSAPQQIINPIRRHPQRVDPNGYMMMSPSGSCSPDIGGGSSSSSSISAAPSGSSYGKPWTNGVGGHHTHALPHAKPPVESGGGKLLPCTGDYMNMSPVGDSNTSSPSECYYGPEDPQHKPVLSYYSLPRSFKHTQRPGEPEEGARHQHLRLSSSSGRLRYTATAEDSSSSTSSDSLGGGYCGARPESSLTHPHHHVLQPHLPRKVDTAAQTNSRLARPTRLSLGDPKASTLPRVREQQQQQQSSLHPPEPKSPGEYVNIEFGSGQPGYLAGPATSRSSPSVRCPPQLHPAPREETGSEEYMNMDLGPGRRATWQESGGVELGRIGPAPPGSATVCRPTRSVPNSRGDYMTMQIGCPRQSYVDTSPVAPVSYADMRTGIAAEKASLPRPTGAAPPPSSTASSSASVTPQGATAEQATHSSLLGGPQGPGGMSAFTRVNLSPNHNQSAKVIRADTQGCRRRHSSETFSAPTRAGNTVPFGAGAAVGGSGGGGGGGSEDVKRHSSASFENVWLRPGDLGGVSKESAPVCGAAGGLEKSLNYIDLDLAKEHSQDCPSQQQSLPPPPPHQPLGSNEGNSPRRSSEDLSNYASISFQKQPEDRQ

T2: IRS-1 (endogenous protein of C2C12 cells), P35569
T2 chain: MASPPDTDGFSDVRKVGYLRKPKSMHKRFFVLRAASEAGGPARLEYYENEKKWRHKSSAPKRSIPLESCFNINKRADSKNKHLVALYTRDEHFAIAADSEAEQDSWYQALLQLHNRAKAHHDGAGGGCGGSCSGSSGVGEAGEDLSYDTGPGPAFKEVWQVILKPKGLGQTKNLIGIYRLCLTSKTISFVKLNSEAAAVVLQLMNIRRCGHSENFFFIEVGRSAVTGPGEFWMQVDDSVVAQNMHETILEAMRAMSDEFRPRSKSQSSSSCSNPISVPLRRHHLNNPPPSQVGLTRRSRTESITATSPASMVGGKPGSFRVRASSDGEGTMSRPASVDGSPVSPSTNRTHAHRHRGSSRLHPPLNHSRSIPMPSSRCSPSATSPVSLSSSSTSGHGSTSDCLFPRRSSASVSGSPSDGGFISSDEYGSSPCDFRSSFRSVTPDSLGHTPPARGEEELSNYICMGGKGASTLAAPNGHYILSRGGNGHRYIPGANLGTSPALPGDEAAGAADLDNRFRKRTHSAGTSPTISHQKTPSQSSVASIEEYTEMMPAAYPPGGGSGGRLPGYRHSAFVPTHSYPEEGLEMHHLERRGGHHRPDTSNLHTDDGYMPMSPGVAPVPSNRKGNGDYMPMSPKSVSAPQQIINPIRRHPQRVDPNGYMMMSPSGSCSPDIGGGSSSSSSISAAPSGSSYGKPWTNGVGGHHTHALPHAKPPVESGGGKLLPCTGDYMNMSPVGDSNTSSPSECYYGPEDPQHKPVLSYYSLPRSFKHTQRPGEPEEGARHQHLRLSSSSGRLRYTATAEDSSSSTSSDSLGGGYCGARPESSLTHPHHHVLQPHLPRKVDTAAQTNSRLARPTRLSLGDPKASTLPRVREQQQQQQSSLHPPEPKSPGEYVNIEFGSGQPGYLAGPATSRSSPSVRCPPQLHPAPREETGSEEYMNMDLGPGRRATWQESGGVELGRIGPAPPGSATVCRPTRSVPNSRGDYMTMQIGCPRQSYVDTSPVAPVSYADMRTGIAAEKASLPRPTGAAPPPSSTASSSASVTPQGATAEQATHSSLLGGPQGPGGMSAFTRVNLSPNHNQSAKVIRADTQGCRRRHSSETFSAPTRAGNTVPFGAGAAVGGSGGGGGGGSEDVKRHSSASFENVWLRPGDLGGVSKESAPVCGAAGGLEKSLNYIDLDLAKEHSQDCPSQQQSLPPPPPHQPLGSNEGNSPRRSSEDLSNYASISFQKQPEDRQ

T3: M-Cadherin (endogenous protein of C2C12 myotubes), P33146
T3 chain: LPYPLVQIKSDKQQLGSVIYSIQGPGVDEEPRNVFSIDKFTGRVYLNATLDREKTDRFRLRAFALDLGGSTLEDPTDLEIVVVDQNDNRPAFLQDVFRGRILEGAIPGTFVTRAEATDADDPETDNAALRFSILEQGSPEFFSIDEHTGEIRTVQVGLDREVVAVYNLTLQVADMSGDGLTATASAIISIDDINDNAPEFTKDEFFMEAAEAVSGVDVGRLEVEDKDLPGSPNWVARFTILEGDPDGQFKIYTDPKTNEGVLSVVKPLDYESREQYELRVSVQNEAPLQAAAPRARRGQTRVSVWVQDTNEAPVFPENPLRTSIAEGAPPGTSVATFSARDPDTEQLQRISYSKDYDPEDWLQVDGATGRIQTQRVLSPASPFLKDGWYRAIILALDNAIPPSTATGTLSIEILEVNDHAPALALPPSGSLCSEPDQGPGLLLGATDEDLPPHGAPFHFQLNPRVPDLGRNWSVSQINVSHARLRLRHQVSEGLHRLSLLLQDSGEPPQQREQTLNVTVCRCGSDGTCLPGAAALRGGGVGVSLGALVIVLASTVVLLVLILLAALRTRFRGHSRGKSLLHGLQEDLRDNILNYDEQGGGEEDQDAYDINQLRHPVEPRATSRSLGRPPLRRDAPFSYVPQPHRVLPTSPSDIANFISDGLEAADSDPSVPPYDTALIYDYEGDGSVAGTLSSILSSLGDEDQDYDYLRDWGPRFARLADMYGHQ

T4: β-Catenin (endogenous protein of C2C12 myotubes) (UniProt Q02248 2-781)
T4 construct: also called 13-Catenin
T4 sequence (looked up): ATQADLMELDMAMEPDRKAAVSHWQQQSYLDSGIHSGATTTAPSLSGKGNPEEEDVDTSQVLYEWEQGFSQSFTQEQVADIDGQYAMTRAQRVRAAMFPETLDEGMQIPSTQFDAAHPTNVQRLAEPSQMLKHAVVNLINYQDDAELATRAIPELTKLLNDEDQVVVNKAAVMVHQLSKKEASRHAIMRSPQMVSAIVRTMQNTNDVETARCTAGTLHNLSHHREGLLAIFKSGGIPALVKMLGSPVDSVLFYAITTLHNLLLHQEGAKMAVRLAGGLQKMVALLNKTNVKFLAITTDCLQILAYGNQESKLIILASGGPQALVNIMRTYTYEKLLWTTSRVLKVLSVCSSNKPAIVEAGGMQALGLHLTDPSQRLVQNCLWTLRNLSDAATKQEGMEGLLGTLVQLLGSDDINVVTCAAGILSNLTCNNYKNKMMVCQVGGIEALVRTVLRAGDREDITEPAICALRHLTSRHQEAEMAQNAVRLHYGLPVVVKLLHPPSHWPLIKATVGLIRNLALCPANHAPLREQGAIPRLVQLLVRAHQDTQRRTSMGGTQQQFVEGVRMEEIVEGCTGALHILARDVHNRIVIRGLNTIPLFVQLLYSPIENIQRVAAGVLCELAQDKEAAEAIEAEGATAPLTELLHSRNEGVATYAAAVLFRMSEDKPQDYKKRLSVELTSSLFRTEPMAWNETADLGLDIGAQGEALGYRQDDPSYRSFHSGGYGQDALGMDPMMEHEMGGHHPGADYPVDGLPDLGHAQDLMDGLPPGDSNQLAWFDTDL

B1: M-Cadherin (endogenous protein of C2C12 myotubes) (other, UniProt P33146 60-784, looked up)
chain: LPYPLVQIKSDKQQLGSVIYSIQGPGVDEEPRNVFSIDKFTGRVYLNATLDREKTDRFRLRAFALDLGGSTLEDPTDLEIVVVDQNDNRPAFLQDVFRGRILEGAIPGTFVTRAEATDADDPETDNAALRFSILEQGSPEFFSIDEHTGEIRTVQVGLDREVVAVYNLTLQVADMSGDGLTATASAIISIDDINDNAPEFTKDEFFMEAAEAVSGVDVGRLEVEDKDLPGSPNWVARFTILEGDPDGQFKIYTDPKTNEGVLSVVKPLDYESREQYELRVSVQNEAPLQAAAPRARRGQTRVSVWVQDTNEAPVFPENPLRTSIAEGAPPGTSVATFSARDPDTEQLQRISYSKDYDPEDWLQVDGATGRIQTQRVLSPASPFLKDGWYRAIILALDNAIPPSTATGTLSIEILEVNDHAPALALPPSGSLCSEPDQGPGLLLGATDEDLPPHGAPFHFQLNPRVPDLGRNWSVSQINVSHARLRLRHQVSEGLHRLSLLLQDSGEPPQQREQTLNVTVCRCGSDGTCLPGAAALRGGGVGVSLGALVIVLASTVVLLVLILLAALRTRFRGHSRGKSLLHGLQEDLRDNILNYDEQGGGEEDQDAYDINQLRHPVEPRATSRSLGRPPLRRDAPFSYVPQPHRVLPTSPSDIANFISDGLEAADSDPSVPPYDTALIYDYEGDGSVAGTLSSILSSLGDEDQDYDYLRDWGPRFARLADMYGHQ

Legend:
[1] = target: T1, IRS-1 (endogenous protein of C2C12 …); assay: endogenous immunoprecipitation in C2C12 myotubes treated with IGF-I for 0, 5 and 30 minutes (FIG. 9A)
Experimental: Western blotting and immunostaining were performed as described in Kim, K. B. et al. Proteomics 6, 2444-53 (2006). For immunoprecipitation, cells were lysed in buffer containing 20 mM Tris-HCl pH 7.4, 137 mM NaCl, 1 mM MgCl₂, 1 mM CaCl₂, 20 mM NaF, 10 mM Na₄P₂O₇, 1% NP-40, 1 mM Na₃VO₄, 1 mM PMSF and protease inhibitor cocktail (Roche). The whole cell lysates (600 μg protein) were incubated with specific antibodies for 90 min and then with 50 μl of Protein A-sepharose or G-agarose bead (50%) slurry for 1 h. The immunoprecipitates were analyzed by Western blotting.
Next, the effect of TRIM72 on IGF-1-induced tyrosine phosphorylation of IGFR and IRS-1 was investigated. The tyrosine phosphorylation of IGFR induced by IGF-I was not changed by TRIM72 overexpression or knockdown (FIG. 8). […] Moreover, the molecular association of IRS-1 with PI3K after IGF-I stimulation was weakened by TRIM72 overexpression, but fortified by TRIM72 knockdown. […] In order to analyze the binding domains of TRIM72 and IRS-1, various mutants of both genes were manufactured (FIG. 9B) and transfected into 293 cells. Then, the binding activity was investigated by immunoprecipitation. […] It should be noted that the 293 cells were treated with MG132 (proteasome inhibitor) after transferring IRS-1 and TRIM72.

[2] = target: T2, IRS-1 (endogenous protein of C2C12 …)
[3] = target: T3, M-Cadherin (endogenous protein of C2C12 …)
[4] = target: B1; assay: immunoprecipitation of myotube protein with TRIM72 antibody or M-Cadherin antibody (FIGS. 12G and 12H)
[5] = target: T4, β-Catenin (endogenous protein of C2C12 …); assay: immunoprecipitation from myotubes treated with Si-Control or Si-TRIM72 (FIG. 12F)

binding result [1] | binding result [4] | binding result [5] | Binder | molecular association of IRS-1 with PI3K after IGF-I stimulation [2] | tyrosine phosphorylation of IRS-1 induced by IGF-I [2] | ubiquitination of M-Cadherin in myotubes with reduced TRIM72 [3]
binds | binds | – | TRIM72 (endogenous protein of C2C12 myotubes) (enzyme, Endogenous protein in lysates of C2C12 myotubes; also called tripartite motif-containing 72) MSAAPGLLRQELSCPLCLQLFDAPVTAECGHSFCRACLIRVAGEPAADGTVACPCCQAPTRPQALSTNLQLSRLVEGLAQVPQGHCEEHLDPLSIYCEQDRTLVCGVCASLGSHRGHRLLPAAEAQARLKTQLPQQKMQLQEACMRKEKTVAVLEHQLVEVEETVRQFRGAVGEQLGKMRMFLAALESSLDREAERVRGDAGVALRRELSSLNSYLEQLRQMEKVLEEVADKPQTEFLMKFCLVTSRLQKILSESPPPARLDIQLPVISDDFKFQVWKKMFRALMPALEELTFDPSSAHPSLVVSSSGRRVECSDQKAPPAGEDTRQFDKAVAVVAQQLLSQGEHYWEVEVGDKPRWALGVMAADASRRGRLHAVPSQGLWLLGLRDGKILEAHVEAKEPRALRTPERPPARIGLYLSFADGVLAFYDASNPDVLTPIFSFHERLPGPVYPIFDVCWHDKGKNAQPLLLVGPEQEQA | the molecular association of IRS-1 with PI3K after IGF-I stimulation was weakened by TRIM72 overexpression, but fortified by TRIM72 knockdown | the tyrosine phosphorylation of IRS-1 was decreased by TRIM72 overexpression, but increased by TRIM72 knockdown | Si-Control treated cells showed stained band (which denotes ubiquitination), whereas Si-TRIM72-treated cells did not
– | – | binds | B1 | – | – | –
